Measurements published in article PMC7737156, “A 3.4-Å cryo-electron microscopy structure of the human coronavirus spike trimer computationally derived from vitrified NL63 virus particles” (QRB Discovery, 2020).

Target: the molecule itself
Assay: cryo-EM structure; single-particle cryo-EM of purified, vitrified HCoV-NL63 virions without chemical fixative; spikes extracted computationally from the micrographs; refined with C3 symmetry (3.4 Å) and without (3.7 Å); virus resuspension buffer 20 mM Tris pH 8.0, 120 mM NaCl, 1 mM EDTA

B1: HCoV-NL63 coronavirus spike glycoprotein (natural protein)
chain: CNSNANLSMLQLGVPDNSSTIVTGLLPTHWFCANQSTSVYSANGFFYIDVGNHRSAFALHTGYYDANQYYIYVTNEIGLNASVTLKICKFSRNTTFDFLSNASSSFDCIVNLLFTEQLGAPLGITISGETVRLHLYNVTRTFYVPAAYKLTKLSVKCYFNYSCVFSVVNATVTVNVTTHNGRVVNYTVCDDCNGYTDNIFSVQQDGRIPNGFPFNNWFLLTNGSTLVDGVSRLYQPLRLTCLWPVPGLKSSTGFVYFNATGSDVNCNGYQHNSVVDVMRYNLNFSANSLDNLKSGVIVFKTLQYDVLFYCSNSSSGVLDTTIPFGPSSQPYYCFINSTINTTHVSTFVGILPPTVREIVVARTGQFYINGFKYFDLGFIEAVNFNVTTASATDFWTVAFATFVDVLVNVSATNIQNLLYCDSPFEKLQCEHLQFGLQDGFYSANFLDDNVLPETYVALPIYYQHTDINFTATASFGGSCYVCKPHQVNISLNGNTSVCVRTSHFSIRYIYNRVKSGSPGDSSWHIYLKSGTCPFSFSKLNNFQKFKTICFSTVEVPGSCNFPLEATWHYTSYTIVGALYVTWSEGNSITGVPYPVSGIREFSNLVLNNCTKYNIYDYVGTGIIRSSNQSLAGGITYVSNSGNLLGFKNVSTGNIFIVTPCNQPDQVAVYQQSIIGAMTAVNESRYGLQNLLQLPNFYYVSNGGNNCTTAVMTYSNFGICADGSLIPVRPRNSSDNGISAIITANLSIPSNWTTSVQVEYLQITSTPIVVDCATYVCNGNPRCKNLLKQYTSACKTIEDALRLSAHLETNDVSSMLTFDSNAFSLANVTSFGDYNLSSVLPQRNIRSSRIAGRSALEDLLFSKVVTSGLGTVDVDYKSCTKGLSIADLACAQYYNGIMVLPGVADAERMAMYTGSLIGGMVLGGLTSAAAIPFSLALQARLNYVALQTDVLQENQKILAASFNKAINNIVASFSSVNDAITQTAEAIHTVTIALNKIQDVVNQQGSALNHLTSQLRHNFQAISNSIQAIYDRLDSIQADQQVDRLITGRLAALNAFVSQVLNKYTEVRGSRRLAQQKINECVKSQSNRYGFCGNGTHIFSIVNSAPDGLLFLHTVLLPTDYKNVKAWSGICVDGIYGYVLRQPNLVLYSDNGVFRVTSRVMFQPRLPVLSDFVQIYNCNVTFVNISRVELHTVIPDYVDVNKTLQEFAQNLPKYVKPNFDLTPFNLTYLNLSSELKQLEAKTASLFQTTVELQGLIDQINSTYVDLKLLNRFENYIKWPWWVWLIISVVFVVLLSLLVFCCLSTGCCGCCNCLTSSMRGCCDCGSTKLPYYEFEKVHVQ
modifications: glycosylated; N-linked glycan density at Asn24 and Asn203 and O-linked glycan density at Ser496 newly seen here, besides the glycan sites seen before in EMD-8331
notes: Spike glycoprotein of human coronavirus NL63, membrane-anchored on native virions, pre-fusion state; model built from PDB 5SZS with residues 883-889 and 993-1000 added; Native spike on the virion, no stabilising mutations and no tags; the cited ectodomain structure PDB 5SZS is another construct (purified ectodomain made in insect cells); also called S trimer; HCoV-NL63 spike (S) trimer; source: …
B1 was tested, and the “stoichiometry N” value was 3.
